Results on one protein are retold here after paper PMC6651773, “2-Ketogluconate Kinase from Cupriavidus necator H16: Purification, Characterization, and Exploration of Its Substrate Specificity” (Molecules, 2019).

Broadly, the Km is the concentration of substrate that gives half-maximal velocity. In general, Vmax refers to the rate approached at saturating substrate. Usually kcat stands for the maximal rate divided by the concentration of active sites. A word on the kcat/Km: it is the second-order rate constant that governs catalysis at low substrate concentration.

Assay in all cases: purified protein
Common to all, as to type: biochemical, Cupriavidus necator

Substrate in data set [1]: Nc1ncnc2c1ncn2[C@@H]1O[C@H](COP(=O)(O)OP(=O)(O)OP(=O)(O)O)[C@@H](O)[C@H]1O
The conditions noted are these: KG 1.25 mM, Mg2+ 5 mM, Tris-HCl pH 8.0, KCl 50 mM, 25 °C.

Substrate in data set [2]: O=C(O)C(=O)C[C@@H](O)[C@H](O)CO
The conditions noted are these: ATP 1.25 mM, Mg2+ 5 mM, Tris-HCl pH 8.0, KCl 50 mM, 25 °C.

Substrate in data set [3]: O=C(O)C(=O)C[C@H](O)[C@H](O)CO
The conditions noted are these: ATP 1.25 mM, Mg2+ 5 mM, Tris-HCl pH 8.0, KCl 50 mM, 25 °C.

Substrate in data set [4]: O=C(O)C(=O)[C@@H](O)[C@H](O)[C@H](O)CO
The conditions noted are these: ATP 1.25 mM, Mg2+ 5 mM, Tris-HCl pH 8.0, KCl 50 mM, 25 °C, sigmoid, Hill n = 1.4.

Substrate in data set [5]: O=C(O)C(=O)[C@H](O)[C@@H](O)[C@H](O)CO
The conditions noted are these: ATP 1.25 mM, Mg2+ 5 mM, Tris-HCl pH 8.0, KCl 50 mM, 25 °C.

B1: KGUKCnec (2-ketogluconate kinase from C. necator H16) (Cupriavidus necator H16) (protein)
chain: MSTDLDVVTLGEAMLMLVAGEAGPLEGAQTFHKRTAGAETNVAIGLSRLGLKVGWASRLGDDSMARYLLGEMQREGVDCSQVVCEPGERTGFQFKGRVDDGSDPPVEYHRRGSAASRMNPEHLDGRWLRRSRHLHVTGVFPALAAGTQAATRQAIATMQAAGRTISFDPNLRPTLWASPELMRETLNDLAQQCDWVLPGIEEGRFLTGHAEPERIAAFYRARGARLVVVKLGADGAYFDGEAGTGHVEAFSVEHVVDTVGAGDGFAVGVISALLEGRPVRDAVRRGAWIGARAVQVRGDTEGLPTHAQLAAASL
notes: full-length ORF (PCR primers kguK-NdeI 5' […] 3' / kguK-BamHI 5' […] 3'
B1: in the data set “purified protein [1]”, the Km was found to be 73 ± 2 µM, the Vmax was determined as 10.2 µmol/min/mg, the kcat worked out at 5.71 ± 0.05 s⁻¹ and the kcat/Km amounted to 78200 ± 2500 M⁻¹ s⁻¹. Besides, in the data set “purified protein [2]”, the Michaelis-Menten constant (Km) was 25000 ± 4000 µM, the Vmax stood at 3.7 µmol/min/mg, the kcat came out at 2.1 ± 0.2 s⁻¹ and the kcat/Km was determined as 83 ± 20 M⁻¹ s⁻¹. In addition, in “purified protein [3]”, the Michaelis-Menten constant (Km) worked out at 1400 ± 200 µM, the Vmax is 18.2 µmol/min/mg, the kcat came to 10.2 ± 0.5 s⁻¹ and the kcat/Km turned out to be 7370 ± 970 M⁻¹ s⁻¹. In addition, in “purified protein [4]”, the K0.5 worked out at 0.35 ± 0.03 mM, the Vmax came out at 10.4 µmol/min/mg, the kcat was 5.8 ± 0.2 s⁻¹ and the kcat/Km was 16800 ± 1300 M⁻¹ s⁻¹. Further, in “purified protein [5]”, the Km is 4000 ± 1000 µM, the Vmax turned out to be 1.9 µmol/min/mg, the kcat was determined as 1.1 ± 0.1 s⁻¹ and the kcat/Km amounted to 246 ± 70 M⁻¹ s⁻¹.
